# Source: paper PMC8134462, “Cross-reactive serum and memory B-cell responses to spike protein in SARS-CoV-2 and endemic coronavirus infection” (Nature Communications, 2021)
# B1: second SARS-CoV-2/HCoV-HKU1 cross-reactive mAb from the CC40 donor (its name is not printed in the text) (antibody, V domains shown)
# VH: EVQLVESGGGVVQPGRSLRLSCVASGFTFSNYGMHWVRQAPGKGLEWVAVMSYDGSVTYYGDSVRGRFTISRDNSKNTLYLQMSSLRTDDTGVYYCAKGQPLDDIWGLGTLVTVSS
# VL: EIVMTQSPLSLPVSLGQSASISCRSSQSLVHTDGITYLSWFQQRPGQSPRRLLYKVSNRDSGVPDRFSGSGSGTDFTLKISRVEAEDVGVYYCLQGTYWPWTFGQGTKVEIK
# notes: also called one of the two cross-reactive mAbs from the CC40 donor
# B2: mAb CC9.2 (IgG) (antibody, V domains shown)
# VH: EVQLVESGGGLVQPGRSLRLSCVAPGFTLGGYGMHWVRQAPGKGLEWVGLISYDGSVQKYGSSVKGRFTISKDNSKNTLYLEMNSLRADDTAVYFCVKGASLGDNWGQGTLVTVSS
# VL: EIVMTQSPLSLPVTLGQPASISCRSSQSLVYSDGDTYMSWFHQRPGQSPRRLIYKVSNRDFGVPDRFSGSGSGTDFTLKISRVEAEDVGVYYCMQGTHWPYTFGPGTKVEIK
# B3: mAb CC9.1 (antibody, V domains shown)
# VH: EVQLVESGGGLVQPGRSLRLSCVAPGFTLGGYGMHWVRQAPGKGLEWVGLISYDGSVQKYGSSVKGRFTISKDNSKNTLYLEMNSLRADDTAVYFCVKGASLGDNWGQGTLVTVSS
# VL: EIVMTQSPLSLPVTLGQPASISCRSSQSLVYSDGDTYMSWFHQRPGQSPRRLIYKVSNRDSGVPDRFSGSGSGTDFTLKISRVEAEDVGVYYCMQGTHWPYTFGPGTKVEIK
# Biological target: T1, SARS-CoV-2 soluble S ectodomain protein (residue 1-1208), prefusion-stabilized, with T4 fibritin … (SARS-CoV-2, Wuhan-Hu-1 (MN908947), UniProt P0DTC2, K986/V987 replaced by proline residues)
# T1 construct: also called SARS-CoV-2 S-protein; whole S protein
# Assay: BLI
# Conditions: both partners purified
row,Binder,binding result
1,B1,binds
2,B2,binds
3,B3,binds
